Like-named read-outs stand apart in the source and are kept apart here.

As usually defined, the Kd is a measure of binding affinity in units of concentration. The low end stands for tighter binding, the high end for weaker binding. One may read the IC50 as the concentration at which inhibition is half-maximal. Low readings indicate higher potency, high ones lower potency.

First the molecules themselves.
B1: BMP-4 (protein)
chain: SPKHHSQRARKKNKNCRRHSLYVDFSDVGWNDWIVAPPGYQAFYCHGDCPFPLADHLNSTNHAIVQTLVNSVNSSIPKACCVPTELSAISMLYLDEYDKVVLKNYQEMVVEGCGCR

In experiment [1] the target is T1, ActRIIA-Fc ECD (Homo sapiens, UniProt P27037). Kind of experiment: SPR. In general terms: In SPR one partner is held on a chip, and binding of the other changes the refractive index at the surface.
T1 sequence (P27037 20-135): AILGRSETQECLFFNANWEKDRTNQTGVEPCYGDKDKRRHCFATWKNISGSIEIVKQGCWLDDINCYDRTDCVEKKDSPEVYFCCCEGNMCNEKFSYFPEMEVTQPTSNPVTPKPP
Experiment [2] addresses T2, Cerberus-Fc (Homo sapiens, UniProt O95813).
T2 chain: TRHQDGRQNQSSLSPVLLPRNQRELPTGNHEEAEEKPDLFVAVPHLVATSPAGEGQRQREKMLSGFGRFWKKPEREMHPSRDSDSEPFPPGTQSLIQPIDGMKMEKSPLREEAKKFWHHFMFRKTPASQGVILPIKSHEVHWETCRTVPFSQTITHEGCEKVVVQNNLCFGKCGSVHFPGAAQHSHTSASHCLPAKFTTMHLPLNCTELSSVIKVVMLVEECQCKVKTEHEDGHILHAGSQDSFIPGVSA
Kind of experiment: SPR.

Experiment [3] deals with T3, ALK3-Fc ECD (Homo sapiens, UniProt P36894).
T3 chain: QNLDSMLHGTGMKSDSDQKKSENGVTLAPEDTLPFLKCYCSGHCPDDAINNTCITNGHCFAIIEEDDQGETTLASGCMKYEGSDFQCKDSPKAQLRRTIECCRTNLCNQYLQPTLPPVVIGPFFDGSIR
Kind of experiment: SPR.

The target in experiment [4] is T1, ActRIIA-Fc ECD. Kind of experiment: SPR. The source holds these as a separate data set.
Experiment [5] concerns the target T2, Cerberus-Fc. Put plainly: SPR.
The target in experiment [6] is T4, BMPRII-Fc ECD (Homo sapiens, UniProt Q13873).
T4 chain: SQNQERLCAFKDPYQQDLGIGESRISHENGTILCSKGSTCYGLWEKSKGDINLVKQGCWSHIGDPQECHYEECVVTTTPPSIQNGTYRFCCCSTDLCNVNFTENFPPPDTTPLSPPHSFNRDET
Kind of experiment: SPR.

The target of experiment [7] is B1. Kind of experiment: SPR competition vs BMPRII-Fc.
The target in experiment [8] is B1. Kind of experiment: SPR competition vs ActRIIA-Fc.
Experiment [9] concerns the target B1. Put plainly: SPR competition vs Cerberus-Fc.
For experiment [10], the target named is B1. Put plainly: SPR competition vs ALK3-Fc.
In experiment [11] the target is B1. Kind of experiment: SPR competition vs ActRIIA-Fc.
Experiment [12] has as its target B1. Kind of experiment: SPR competition vs ActRIIA-Fc.
In experiment [13] the target is B1. Put plainly: SPR competition vs ActRIIA-Fc.
The target in experiment [14] is B1. Kind of experiment: SPR competition vs Cerberus-Fc.
Experiment [15] concerns the target B1. Put plainly: SPR competition vs ALK3-Fc.
Experiment [16] concerns the target B1. Put plainly: SPR competition vs ActRIIA-Fc.
Experiment [17] addresses B1. Kind of experiment: SPR competition vs BMPRII-Fc.
Experiment [18] deals with B1. Kind of experiment: SPR competition vs ALK3-Fc.
Experiment [19] addresses B1. Put plainly: SPR competition vs Cerberus-Fc.
In experiment [20] the target is B1. Put plainly: SPR competition vs BMPRII-Fc.
Experiment [21] addresses B1. Put plainly: SPR competition vs BMPRII-Fc.
In experiment [22] the target is B1. Kind of experiment: SPR competition vs Cerberus-Fc.
Experiment [23] has as its target B1. Put plainly: SPR competition vs ALK3-Fc.

Regarding B1, the Kd in [1] was found to be 2.85 nM; in experiment [2], 2.73 nM; in experiment [3], 0.193 nM; in [4], 3.26 nM; in [5], 2.24 nM; in experiment [6] it was 8.13 nM.

B2: Cerberus (protein)
chain: TRHQDGRQNQSSLSPVLLPRNQRELPTGNHEEAEEKPDLFVAVPHLVATSPAGEGQRQREKMLSGFGRFWKKPEREMHPSRDSDSEPFPPGTQSLIQPIDGMKMEKSPLREEAKKFWHHFMFRKTPASQGVILPIKSHEVHWETCRTVPFSQTITHEGCEKVVVQNNLCFGKCGSVHFPGAAQHSHTSASHCLPAKFTTMHLPLNCTELSSVIKVVMLVEECQCKVKTEHEDGHILHAGSQDSFIPGVSA
Take B2: the IC50 is 138 nM in experiment [7]; 266 nM in [8]; 99.7 nM in experiment [9]; 245 nM in [10]; 56 nM in [11]; 305 nM in experiment [12]. Moreover, the IC50 in [13] was determined as 239 nM; in experiment [14], 57.6 nM; in experiment [15], 134 nM; in experiment [16], 58 nM; in experiment [17], 166 nM; in experiment [18], 289 nM. For the same molecule, the IC50 in experiment [19] came out at 46.6 nM; in [20], 132 nM; in [21], 153 nM; in [22] it was 56.7 nM; in experiment [23], 303 nM.

Source of the values: publication PMC4955526 (2017).
